Test results as given in article PMC4862333 (The Journal of Cell Biology, 2016).

B1: His-Sumo-tagged Cab45 (recombinant) (natural protein, human, UniProt Q9BRK5 37-362, looked up)
chain: RPANHSSTRERVANREENEILPPDHLNGVKLEMDGHLNRGFHQEVFLGKDLGGFDEDAEPRRSRRKLMVIFSKVDVNTDRKISAKEMQRWIMEKTAEHFQEAMEESKTHFRAVDPDGDGHVSWDEYKVKFLASKGHSEKEVADAIRLNEELKVDEETQEVLENLKDRWYQADSPPADLLLTEEEFLSFLHPEHSRGMLRFMVKEIVRDLDQDGDKQLSVPEFISLPVGTVENQQGQDIDDNWVKDRKKEFEELIDSNHDGIVTAEELESYMDPMNEYNALNEAKQMIAVADENQNHHLEPEEVLKYSEFFTGSKLVDYARSVHEEF
B2: ATTO488-labeled recombinant Cab45 (natural protein, human, UniProt Q9BRK5 37-362, looked up)
chain: B1 chain
modifications: ATTO488 (NHS-ATTO488 label)

Legend:
[1] = target: the molecule itself; assay: native gel or EMSA
[2] = target: the molecule itself; assay: in vitro oligomerization assay

Protein | binding result [1] | binding result [2]
B1 | binds | 
B2 |  | binds
